# B1: multimeric protein SEQ ID NO: 43 (designed binder)
# chain: GVRLWATRQAMLGQVHEVPEGWLIFVAEQEELYVRVQNGFRKVQLEARTPLGGGGSGGGGSGGGGSQDSTSDLIPAPPLSKVPLQQNFQDNQFHGKWYVVGQAGNIRLREDKDPIKMMATIYELKEDKSYDVTMVKFDDKKCMYDIWTFVPGSQPGEFTLGKIKSFPGHTSSLVRVVSTNYNQHAMVFFKFVFQNREEFYITLYGRTKELTSELKENFIRFSKSLGLPENHIVFPVPIDQCIDGGGSGGAPEQKLISEEDLGSHHHHHHHHHH
# B2: multimeric protein SEQ ID NO: 41 (designed binder)
# chain: QDSTSDLIPAPPLSKVPLQQNFQDNQFHGKWYVVGQAGNIRLREDKDPIKMMATIYELKEDKSYDVTMVKFDDKKCMYDIWTFVPGSQPGEFTLGKIKSFPGHTSSLVRVVSTNYNQHAMVFFKFVFQNREEFYITLYGRTKELTSELKENFIRFSKSLGLPENHIVFPVPIDQCIDGGSPTPTPTTPTPTPTGVRLWATRQAMLGQVHEVPEGWLIFVAEQEELYVRVQNGFRKVQLEARTPLGGSGGAPEQKLISEEDLGSHHHHHHHHHH
# B3: multimeric protein SEQ ID NO: 39 (designed binder)
# chain: QDSTSDLIPAPPLSKVPLQQNFQDNQFHGKWYVVGQAGNIRLREDKDPIKMMATIYELKEDKSYDVTMVKFDDKKCMYDIWTFVPGSQPGEFTLGKIKSFPGHTSSLVRVVSTNYNQHAMVFFKFVFQNREEFYITLYGRTKELTSELKENFIRFSKSLGLPENHIVFPVPIDQCIDGGGGGSGVRLWATRQAMLGQVHEVPEGWLIFVAEQEELYVRVQNGFRKVQLEARTPLGGSGGAPEQKLISEEDLGSHHHHHHHHHH
# B4: multimeric protein SEQ ID NO: 44 (designed binder)
# chain: GVRLWATRQAMLGQVHEVPEGWLIFVAEQEELYVRVQNGFRKVQLEARTPLGGGGSQDSTSDLIPAPPLSKVPLQQNFQDNQFHGKWYVVGQAGNIRLREDKDPIKMMATIYELKEDKSYDVTMVKFDDKKCMYDIWTFVPGSQPGEFTLGKIKSFPGHTSSLVRVVSTNYNQHAMVFFKFVFQNREEFYITLYGRTKELTSELKENFIRFSKSLGLPENHIVFPVPIDQCIDGGGSGGAPEQKLISEEDLGSHHHHHHHHHH
# B5: multimeric protein SEQ ID NO: 42 (designed binder)
# chain: QDSTSDLIPAPPLSKVPLQQNFQDNQFHGKWYVVGQAGNIRLREDKDPIKMMATIYELKEDKSYDVTMVKFDDKKCMYDIWTFVPGSQPGEFTLGKIKSFPGHTSSLVRVVSTNYNQHAMVFFKFVFQNREEFYITLYGRTKELTSELKENFIRFSKSLGLPENHIVFPVPIDQCIDGAEAAAKEAAAKEAAAKAGVRLWATRQAMLGQVHEVPEGWLIFVAEQEELYVRVQNGFRKVQLEARTPLGGSGGAPEQKLISEEDLGSHHHHHHHHHH
# B6: multimeric protein SEQ ID NO: 38 (designed binder)
# chain: QDSTSDLIPAPPLSKVPLQQNFQDNQFHGKWYVVGQAGNIRLREDKDPIKMMATIYELKEDKSYDVTMVKFDDKKCMYDIWTFVPGSQPGEFTLGKIKSFPGHTSSLVRVVSTNYNQHAMVFFKFVFQNREEFYITLYGRTKELTSELKENFIRFSKSLGLPENHIVFPVPIDQCIDGGGGGSGGGGSGGGGSGVRLWATRQAMLGQVHEVPEGWLIFVAEQEELYVRVQNGFRKVQLEARTPLGGSGGAPEQKLISEEDLGSHHHHHHHHHH
# notes: Trivalent; Self-assembled from its monomer polypeptides
# Biological target: T1, hu4-1BB-Fc (R&D Systems) (human, UniProt Q07011 24-186)
# T1 construct: Bought; also called human 4-1BB; not shown: human IgG Fc of the bought fusion
# Assay: SPR (Biacore 8K), hu4-1BB-Fc captured by anti-human IgG Fc; apparent value, 1:1 fit
# Protocol: The anti-human IgG Fc antibody (GE Healthcare) was immobilized on a CM5 sensor chip using standard amine chemistry: the carboxyl groups on the chip were activated using 1-ethyl-3-(3-dimethylaminopropyl)-carbodiimide (EDC) and N-hydroxysuccinimide (NHS). Subsequently, anti-human IgG Fc antibody solution (GE Healthcare) at a concentration of 25 μg/mL in 10 mM sodium acetate (pH 5.0) was applied at a flow rate of 5 μL/min until an immobilization level of 4000-10000 resonance units (RU) was achieved. Residual non-reacted NHS-esters were blocked by passing a solution of 1 M ethanolamine across the surface. The reference channel was treated in an analogous manner. Subsequently, hu4-1BB-Fc (R&D Systems) at 0.3 μg/mL was captured by the anti-human IgG-Fc antibody at the chip surface for 180 s at a flow rate of 10 μL/min.
# The binding assay was carried out with a contact time of 180 s, a dissociation time of 1200 s or 3000 s and a flow rate of 30 μL/min. All measurements were performed at 25° C. Lipocalin mutein SEQ ID NO: 64 as included in the multimeric proteins was also tested as […]. […] Prior to the protein measurements, three startup cycles were performed for conditioning purposes. Data were evaluated with Biacore Evaluation software. Double referencing was used and the 1:1 binding model was used to fit the raw data.
Kd [nM],koff [s⁻¹],kon [M⁻¹ s⁻¹],Binder
0.39,4.42e-05,114000,B1
0.31,2.07e-05,66200,B2
0.38,2.63e-05,68800,B3
0.24,2.07e-05,87500,B4
0.28,1.74e-05,61300,B5
0.25,2.22e-05,89200,B6

# Biological target: T2, cynomolgus 4-1BB on CHO cells (cynomolgus, UniProt A9YYE7 24-254)
# T2 construct: also called Flp-In-CHO::cyno4-1BB; cynomolgus 4-1BB-expressing CHO cells
# T2 sequence (A9YYE7 entry or part of it limits assumed): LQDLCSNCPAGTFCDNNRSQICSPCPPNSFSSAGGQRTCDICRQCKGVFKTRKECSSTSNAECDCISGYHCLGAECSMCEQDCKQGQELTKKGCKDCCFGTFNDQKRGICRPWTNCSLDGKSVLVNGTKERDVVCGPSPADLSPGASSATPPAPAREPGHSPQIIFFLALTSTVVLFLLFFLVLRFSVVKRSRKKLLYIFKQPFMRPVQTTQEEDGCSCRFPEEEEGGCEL
# Assay: flow cytometry, Flp-In-CHO::cyno4-1BB cells
# Protocol: (§1) CHO cells were stably transfected with human 4-1BB, cynomolgus 4-1BB, or a mock control using the Flp-In system (Life Technologies) according to the manufacturer's instructions. Transfected CHO cells were maintained in Ham's F12 medium (Life Technologies) supplemented with 10% Fetal Calf Serum (Biochrom) and 500 μg/ml Hygromycin B (Roth). Cells were cultured in cell culture flasks according to manufacturer's instruction (37° C., 5% CO₂ atmosphere).
# (§2) 5×10⁴ cells per well were incubated for 1 h in ice-cold PBS containing 5% fetal calf serum (PBS-FCS). A dilution series of the tested multimeric proteins (SEQ ID NOs: 38-44 and 46-55), the 4-1BB-targeting lipocalin mutein as included in the multimeric proteins (SEQ ID NO: 64) or the GPC3-targeting lipocalin SEQ ID NO: 90 were added to the cells and incubated for 1 h on ice. Cells were washed twice with PBS and then incubated with a rabbit anti-NGAL or a goat anti-human IgG labeled with fluorescent dye Alexa 488 for 30 min on ice. Human IgG4 isotype (SEQ ID NOs: 29 and 30) and lipocalin mutein SEQ ID NO: 8 were tested as a negative control. Cells were subsequently washed and analyzed using iQue Flow cytometer (Intellicyte Screener). Mean geometric fluorescent signals were plotted and fitted with Graphpad software using nonlinear regression (shared bottom, four parameters, variable slope).
row,EC50 [nM],Binder
1,5.63,B2
2,3.68,B3
3,5.03,B4
4,6.59,B5
5,5.92,B6

# Biological target: T3, human 4-1BB on cells (human, UniProt Q07011 24-255)
# T3 construct: whole, on cells; Stably transfected CHO cells (flow cytometry) and bought Jurkat reporter cells (bioassay); also called Flp-In-CHO::hu4-1BB; human 4-1BB-expressing CHO cells
# T3 sequence (Q07011 24-255): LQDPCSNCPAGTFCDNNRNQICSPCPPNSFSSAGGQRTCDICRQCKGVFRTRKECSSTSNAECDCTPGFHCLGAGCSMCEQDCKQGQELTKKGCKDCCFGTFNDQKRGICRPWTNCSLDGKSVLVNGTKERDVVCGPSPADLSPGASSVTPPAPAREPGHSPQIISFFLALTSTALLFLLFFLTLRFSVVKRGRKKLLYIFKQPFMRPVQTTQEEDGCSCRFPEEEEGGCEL
# Assay: flow cytometry, Flp-In-CHO::hu4-1BB cells
# Protocol: as §1, §2
row,EC50 [nM],Binder
1,7.37,B2
2,5.87,B3
3,6.64,B4
4,8.5,B5
5,4.89,B6

# Biological target: T4, recombinant hu4-1BB-His (human 4-1BB with a C-terminal polyhistidine tag, R&D Systems) (human, UniProt Q07011 24-186)
# T4 construct: Bought; not shown: C-terminal polyhistidine tag
# Assay: ELISA, hu4-1BB-His coated, detection anti-NGAL-HRP
# Protocol: Recombinant hu4-1BB-His (human 4-1BB with a C-terminal polyhistidine tag, R&D Systems) at the concentration of 1 μg/mL in PBS was coated overnight on microtiter plates at 4° C. After washing with PBS-0.05% T (PBS supplemented with 0.05% (v/v) Tween 20), the plates were blocked with 2% BSA (w/v) in PBS-0.1% T (PBS supplemented with 0.1% (v/v) Tween 20) for 1 h at room temperature. After washing with 100 μL PBS-0.05% T five times, exemplary multimeric proteins (SEQ ID NOs: 38-44 and 46-53) or 4-1BB-specific lipocalin mutein as included in the multimeric protein (SEQ ID NO: 64) at different concentrations, ranging from 100 to 0.002 nM, were added to the wells and incubated for 1 h at room temperature, followed by another wash step. Bound molecules under study were detected by incubation with 1:1000 diluted anti-NGAL-HRP in PBS-0.1% T-2% BSA. After an additional wash step, fluorogenic HRP substrate (QuantaBlu, Thermo) was added to each well and the fluorescence intensity was detected using a fluorescence microplate reader.
# The results of exemplary experiments are depicted in FIG. 2, together with the fit curves resulting from a 1:1 binding sigmoidal fit, where the EC₅₀ value and the maximum signal were free parameters, and the slope was fixed to one. The observed EC₅₀ values toward the hu4-1BB of all tested multimeric proteins were in the sub nanomolar range.
row,EC50 [nM],Binder
1,0.16,B1
2,0.19,B2
3,0.24,B3
4,0.22,B4
5,0.26,B5
6,0.16,B6

# Reference: patent US20230227568A1 (Pieris, published 2023)
